# Measurements from publication PMC8508666.
# Like-named read-outs stand apart in the source and are kept apart here.
# B1: TRAPα, C-terminally tagged with SmBiT (natural protein)
# chain: VLFRGGPRGLLAVAQDLTEDEETVEDSIIEDEDDEAEVEEDEPTDLVEDKEEEDVSGEPEASPSADTTILFVKGEDFPANNIVKFLVGFTNKGTEDFIVESLDASFRYPQDYQFYIQNFTALPLNTVVPPQRQATFEYSFIPAEPMGGRPFGLVINLNYKDLNGNVFQDAVFNQTVTVIEREDGLDGETIFMYMFLAGLGLLVIVGLHQLLESRKRKRPIQKVEMGTSSQNDVDMSWIPQETLNQINKASPRRLPRKRAQKRSVGSDE
# B2: TRAPβ, C-terminally tagged with SmBiT (natural protein)
# chain: EEGARLLASKSLLNRYAVEGRDLTLQYNIYNVGSSAALDVELSDDSFPPEDFGIVSGMLNVKWDRIAPASNVSHTVVLRPLKAGYFNFTSATITYLAQEDGPVVIGSTSAPGQGGILAQREFDRRFSPHFLDWAAFGVMTLPSIGIPLLLWYSSKRKYDTPKTKKN
# B3: synthetic SmBiT peptide (11 + 1 aa) (peptide)
# peptide: CVTGYRLFEEIL
# Experiments:
# [1] = biological target: regulatory subunit of protein kinase A, C-terminally tagged with LgBiT (not stated | Oplophorus gracilirostris); experiment: split reporter (BiFC, NanoBiT); synthetic peptide complementation: HeLa cells expressing a LgBiT fusion, furimazine, then 0.002% digitonin, then synthetic peptide (scrambled, actin, SmBiT 1-100 µM; HaBiT up to 100 nM); signal 4 min after the peptide; RLU normalised to the scrambled peptide set to 1
# [2] = biological target: Sec61α, C-terminally tagged with LgBiT (not stated | Oplophorus gracilirostris); experiment: as above
# [3] = biological target: Sec61β, C-terminally tagged with LgBiT (not stated | Oplophorus gracilirostris); experiment: as above
# [4] = biological target: Sec61α, N-terminally tagged with LgBiT (Oplophorus gracilirostris | not stated); experiment: as above
# [5] = biological target: TRAPβ, C-terminally tagged with LgBiT (not stated | Oplophorus gracilirostris); experiment: as above
# [6] = biological target: TRAPα, C-terminally tagged with LgBiT (not stated | Oplophorus gracilirostris); experiment: as above
# [7] = biological target: regulatory subunit of protein kinase A, C-terminally tagged with LgBiT (not stated | Oplophorus gracilirostris); experiment: split reporter (BiFC, NanoBiT); bimolecular luminescence complementation in living HeLa cells, 96-well plate, 24 h after co-transfection of one LgBiT and one SmBiT fusion plasmid (50 ng each); furimazine added, signal 4 min later; RLU normalised to the LgBiT fusion plus Halo-CS set to 1; forskolin (15 µM) lowered the rPKA-cPKA signal; digitonin plus trypsin eliminated the signals
# [8] = biological target: Sec61α, N-terminally tagged with LgBiT (Oplophorus gracilirostris | not stated); experiment: as above
# [9] = biological target: Sec61β, C-terminally tagged with LgBiT (not stated | Oplophorus gracilirostris); experiment: as above
# [10] = biological target: TRAPα, C-terminally tagged with LgBiT (not stated | Oplophorus gracilirostris); experiment: as above
# [11] = biological target: Sec61α, C-terminally tagged with LgBiT (not stated | Oplophorus gracilirostris); experiment: split reporter (BiFC, NanoBiT); synthetic peptide complementation: HeLa cells expressing a LgBiT fusion, furimazine, then 0.002% digitonin, then synthetic peptide (scrambled, actin, SmBiT 1-100 µM; HaBiT up to 100 nM); signal 4 min after the peptide; RLU normalised to the scrambled peptide set to 1; remark: listed apart in the source
# [12] = biological target: Sec61β, C-terminally tagged with LgBiT (not stated | Oplophorus gracilirostris); experiment: as above; remark: listed apart in the source
# [13] = biological target: Sec61α, N-terminally tagged with LgBiT (Oplophorus gracilirostris | not stated); experiment: as above; remark: listed apart in the source
# [14] = biological target: TRAPβ, C-terminally tagged with LgBiT (not stated | Oplophorus gracilirostris); experiment: as above; remark: listed apart in the source
# [15] = biological target: TRAPα, C-terminally tagged with LgBiT (not stated | Oplophorus gracilirostris); experiment: as above; remark: listed apart in the source
molecule,measurement,setting,value
synthetic HaBiT peptide (high affinity variant of SmBiT),fold activity over the SmBiT peptide,[1],10000 fold
same,luminescence relative to the scrambled peptide,[2],15 RLU
same,luminescence relative to the scrambled peptide,[3],> 50 fold
same,luminescence relative to the scrambled peptide,[4],> 50 fold
same,luminescence relative to the scrambled peptide,[5],> 50 fold
same,luminescence relative to the scrambled peptide,[6],> 50 fold
"catalytic subunit of protein kinase A, C-terminally tagged with SmBiT (from UniProt P17612 1-351) (enzyme)","relative luminescence (RLU, Halo-CS control pair = 1)",[7],613 RLU
"Sec61β, N-terminally tagged with SmBiT (from UniProt P60468 1-96) (natural protein)","relative luminescence (RLU, Halo-CS control pair = 1)",[8],141 RLU
"Sec63, N-terminally tagged with SmBiT (from UniProt Q9UGP8 1-760) (natural protein)","relative luminescence (RLU, Halo-CS control pair = 1)",[9],202 RLU
B1,"relative luminescence (RLU, Halo-CS control pair = 1)",[8],62 RLU
B2,"relative luminescence (RLU, Halo-CS control pair = 1)",[10],91 RLU
B3,luminescence relative to the scrambled peptide,[11],2 RLU
same,luminescence relative to the scrambled peptide,[12],> 10 fold
same,luminescence relative to the scrambled peptide,[13],> 10 fold
same,luminescence relative to the scrambled peptide,[14],> 10 fold
same,luminescence relative to the scrambled peptide,[15],> 10 fold
